One series deals with GATA1 (Homo sapiens) (UniProt P15976). To be noted: ChIP-pyrosequencing, heterozygous primary human erythroblasts; input alleles balanced; about 60:40 G:T.
The target of the next series is TAL1 (Homo sapiens) (UniProt P17542). To be noted: ChIP-pyrosequencing, heterozygous primary human erythroblasts; input alleles balanced; about 60:40 G:T.
Sequence of TAL1 (Homo sapiens) (P17542 whole entry): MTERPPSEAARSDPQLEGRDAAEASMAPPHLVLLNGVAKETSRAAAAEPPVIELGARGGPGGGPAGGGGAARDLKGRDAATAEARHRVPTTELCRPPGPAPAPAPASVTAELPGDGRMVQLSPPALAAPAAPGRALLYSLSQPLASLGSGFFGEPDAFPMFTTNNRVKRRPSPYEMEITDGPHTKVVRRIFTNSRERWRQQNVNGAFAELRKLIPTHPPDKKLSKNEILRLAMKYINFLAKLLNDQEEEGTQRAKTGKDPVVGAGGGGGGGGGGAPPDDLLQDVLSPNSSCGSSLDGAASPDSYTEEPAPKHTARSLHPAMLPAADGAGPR

Sequence of GATA1 (Homo sapiens) (P15976 whole entry): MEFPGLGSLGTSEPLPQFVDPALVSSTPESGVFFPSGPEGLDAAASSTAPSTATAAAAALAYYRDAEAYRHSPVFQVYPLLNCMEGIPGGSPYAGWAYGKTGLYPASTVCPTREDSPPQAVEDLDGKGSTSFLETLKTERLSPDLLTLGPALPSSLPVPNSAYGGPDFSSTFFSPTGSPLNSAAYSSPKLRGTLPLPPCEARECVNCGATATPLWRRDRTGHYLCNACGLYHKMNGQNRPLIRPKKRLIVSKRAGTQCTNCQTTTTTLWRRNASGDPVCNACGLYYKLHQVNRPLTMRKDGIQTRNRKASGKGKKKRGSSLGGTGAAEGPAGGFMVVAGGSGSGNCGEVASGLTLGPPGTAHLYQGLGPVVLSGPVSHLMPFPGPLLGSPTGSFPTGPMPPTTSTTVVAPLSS

Take “CTGNNNNNNNNNGATA (double strand) [BCL11A DHS +62 rs1427407 G-allele (half-E-box/GATA motif)]”: the binding signal (% of alleles in ChIP) with GATA1 (Homo sapiens) and with TAL1 (Homo sapiens) was 60 throughout.
As to BCL11A DHS +62 rs1427407 T-allele, the binding signal (% of alleles in ChIP) with GATA1 (Homo sapiens) and with TAL1 (Homo sapiens) was 40 in each case.

(Values after patent US20150307867.)
